Measured values taken from paper PMC5241339.
Where “and” joins values, the source holds several entries; their conditions need not be identical. Identical values can stand only once.

Legend:
[1] = molecular target: receptor for advanced glycation endproducts (RAGE) on CHO-RAGE cells (UniProt Q15109); experiment: radioligand binding; CHO cell lines incubated with [18F]FB-rS100A12 in PBS++ for 90 min at 37 °C, lysed, gamma counter, % ID per protein; blocking with 15-fold excess of rS100A12 or anti-CD36 antibody FA6-152 added 20 min before
[2] = molecular target: CD36 on CHO-CD36 cells (UniProt P16671); experiment: as above
[3] = molecular target: CD36 (His-tagged recombinant human protein, Sino Biological, Life technologies, 70-80 kDa) (human) (UniProt P16671); experiment: SPR; Biacore T100; CD36 immobilized by amine coupling on a C1 chip (1000 RU); S100A12 species as analyte 0.62-50.0 nM, single cycle kinetics, 30 µL/min, 25 °C; HBS-P+ with 350 µM CaCl2; two-state reaction model
[4] = molecular target: receptor for advanced glycation endproducts (RAGE) on CHO-RAGE cells (UniProt Q15109); experiment: cell binding of a fluorescent tracer (fluorescence of cell lysates, plate reader); CHO cell lines in 24-well plates incubated with 10 µM fluorescein-rS100A12 for 90 min at 37 °C, lysed, fluorescence per protein; blocking with anti-CD36 antibody FA6-152 10 µg/mL, 30 min before
[5] = molecular target: CD36 on CHO-CD36 cells (UniProt P16671); experiment: as above

Sequence of CD36 (His-tagged recombinant human protein, Sino Biological, Life technologies, 70-80 kDa) (human) (P16671 30-439): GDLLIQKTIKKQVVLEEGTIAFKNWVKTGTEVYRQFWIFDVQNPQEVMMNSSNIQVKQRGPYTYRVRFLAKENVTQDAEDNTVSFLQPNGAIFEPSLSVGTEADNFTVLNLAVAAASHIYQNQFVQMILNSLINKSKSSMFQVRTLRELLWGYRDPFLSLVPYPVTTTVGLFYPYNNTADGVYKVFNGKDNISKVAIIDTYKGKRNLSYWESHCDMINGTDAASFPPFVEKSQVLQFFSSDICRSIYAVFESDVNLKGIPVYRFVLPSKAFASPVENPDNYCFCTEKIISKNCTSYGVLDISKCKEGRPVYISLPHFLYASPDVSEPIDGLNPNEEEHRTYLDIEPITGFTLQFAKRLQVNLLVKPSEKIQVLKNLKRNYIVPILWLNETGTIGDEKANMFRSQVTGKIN
Sequence of 4-[18F]fluorobenzoyl-rS100A12 ([18F]FB-rS100A12) (natural protein) (P80511 2-92): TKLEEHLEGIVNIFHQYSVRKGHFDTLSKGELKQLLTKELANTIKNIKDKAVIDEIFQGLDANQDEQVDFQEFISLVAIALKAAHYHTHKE
Sequence of receptor for advanced glycation endproducts (RAGE) on CHO-RAGE cells (Q15109 23-404): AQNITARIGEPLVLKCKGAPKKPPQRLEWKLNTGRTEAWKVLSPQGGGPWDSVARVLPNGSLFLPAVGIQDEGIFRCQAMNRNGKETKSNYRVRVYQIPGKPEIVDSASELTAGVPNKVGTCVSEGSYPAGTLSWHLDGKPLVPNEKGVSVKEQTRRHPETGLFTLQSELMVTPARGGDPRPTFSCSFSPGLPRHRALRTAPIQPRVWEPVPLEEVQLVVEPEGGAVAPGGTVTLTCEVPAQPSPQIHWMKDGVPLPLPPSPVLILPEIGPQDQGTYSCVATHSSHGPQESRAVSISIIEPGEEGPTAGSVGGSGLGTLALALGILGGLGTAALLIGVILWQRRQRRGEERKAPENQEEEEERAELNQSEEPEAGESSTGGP
Sequence of CD36 on CHO-CD36 cells (P16671 whole entry): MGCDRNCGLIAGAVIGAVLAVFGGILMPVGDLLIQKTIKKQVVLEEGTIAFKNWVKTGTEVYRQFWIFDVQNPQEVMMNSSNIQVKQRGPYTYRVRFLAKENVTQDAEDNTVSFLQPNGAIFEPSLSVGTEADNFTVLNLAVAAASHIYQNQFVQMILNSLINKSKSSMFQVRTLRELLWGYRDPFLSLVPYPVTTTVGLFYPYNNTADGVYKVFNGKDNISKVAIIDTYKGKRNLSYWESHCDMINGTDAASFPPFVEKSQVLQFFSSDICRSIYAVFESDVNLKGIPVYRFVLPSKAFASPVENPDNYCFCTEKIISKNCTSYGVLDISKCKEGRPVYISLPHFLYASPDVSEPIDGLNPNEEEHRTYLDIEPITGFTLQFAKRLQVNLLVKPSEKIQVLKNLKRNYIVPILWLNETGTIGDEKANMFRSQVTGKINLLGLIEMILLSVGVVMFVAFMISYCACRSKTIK

cell association higher than in CHO-K1 cells [1] [%]	cell association higher than in CHO-K1 cells [2] [%]	Kd [3]	binding higher than in CHO-K1 cells [4] [%]	binding higher than in CHO-K1 cells [5] [%]	Substance
40	20				4-[18F]fluorobenzoyl-rS100A12 ([18F]FB-rS100A12) (natural protein)
		4.79 nM	50	30	fluorescein-labeled rS100A12 (natural protein)
		0.67 nM and 0.99 nM			recombinant S100A12 (rS100A12) (natural protein)
